Reference: the supplement of paper PMC9170038

What was measured:
MS2 coat protein [1] = experiment: apparent KD of MS2 coat protein; designed switch direction (-1 OFF switch, 1 ON switch): 1; higher = weaker reporter binding
Outline: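 The apparent KD reported per design is the median over clusters of curve fits to normalised cluster fluorescence. The RNA switches were transcribed on Illumina chips by stalled E. coli RNA polymerase. SNAP-549-labelled MS2 coat protein was titrated from 0.7 or 1.5 nM, doubling up to 3 µM, in Tris-HCl pH 7.5 buffer containing KCl, MgCl2, BSA, DTT, tRNA and Tween-20, with no input, 200 uM small-molecule ligand, or an oligonucleotide input.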

MS2 coat protein [2] = experiment: apparent KD of MS2 coat protein; higher = weaker reporter binding; conditions: Eterna round: R107
Outline: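 Illumina sequencing clusters were used for on-chip transcription of designed RNA switches. Titration with SNAP-549-labelled MS2 coat protein followed, in twofold steps from 0.7 or 1.5 nM to 3 µM in 100 mM Tris-HCl pH 7.5, 80 mM KCl, 4 mM MgCl2, without or with constant ligand. Apparent KD is each design's median of fits to normalised cluster binding curves.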

[3] = input ligand: microRNA oligo, concentration not stated
[4] = Eterna round: R95, input ligand: FMN 200 uM
[5] = Eterna round: R95, input ligand: none
[6] = Eterna round: R95, input ligand: microRNA oligo, concentration not stated
[7] = input ligand: theophylline 20 uM
[8] = input ligand: theophylline 2 mM
[9] = input ligand: tryptophan 2.4 mM

| Sequence | apparent KD of MS2 coat protein (MS2 coat protein [1]; input ligand: FMN 200 uM) [nM] | apparent KD of MS2 coat protein (MS2 coat protein [1]; [3]) [nM] | apparent KD of MS2 coat protein (MS2 coat protein [1]; input ligand: none) [nM] | other results |
| --- | --- | --- | --- | --- |
| UAGGAGAGUAGAACAUGAGGAUCACCCAUGUAACCUCAUGUAUAGGAUAUGUUAAGAGUAGUAGAACAGAAGGAUAAGUAGGAU [Default title] (Eterna round: R96, puzzle: Same State NG 3) | 694 | 494 | 655 | – |
| UGUUGUUAAUUAGGAUAUGGACACAUGAGGAUCACCCAUGUAAUGUCGAUGCUAUGUGGACACGUUCAGAAGGAAUGGCUAACA [SameState NG2 #92] (Eterna round: R96, puzzle: Same State NG 2) | 29.7 | 53.2 | 58.4 | – |
| CCGGUUUAUGGAGGAUAUGGAGCCUUAUUGGCUCCAGAAGGCUAAUAACAUGAGGAUCACCCAUGUCGGCGGUCUAAUGACCGA [Eli NG1ss - 56] (Eterna round: R96, puzzle: Same State NG 1) | – | 21.8 | – | – |
| CUCAAAACAAGUUGCAGUGUUCGUCUUUAACAUGAGGAUCACCCAUGUAAUAACCCAGUGGAAGCGCUCGGGCCACC [Ineson] (puzzle: Sensor for hsa-mir-208a) | – | – | – | apparent KD of MS2 coat protein (MS2 coat protein [1]; [4]): 30.2 nM; apparent KD of MS2 coat protein (MS2 coat protein [1]; [5]): 28.5 nM |
| AGUCCAGCCUGAGCUGGACAAAAGCAUGUACAUGAGGAUCACCCAUGUCAUGUACAAGCUUUUUGCUCGUCUAAAAU [Mat - hsa-mir-208a - Mod of JL - D6] (puzzle: Sensor for hsa-mir-208a) | – | – | – | apparent KD of MS2 coat protein (MS2 coat protein [1]; [4]): 430 nM; apparent KD of MS2 coat protein (MS2 coat protein [1]; [6]): 16.3 nM; apparent KD of MS2 coat protein (MS2 coat protein [1]; [5]): 675 nM |
| UUCACCUUAUUUUACAUGAGGAUCACCCAUGUUUUCCCUACGUAGGAUAUCGAUGCUUGAUUGUUCGAGAAGGACGAUGUAAGU [JR_SSND3_Sub055] (Eterna round: R96, puzzle: Same State NG 3) | 33.4 | 21.7 | 33.3 | – |
| GCACAUGAGGAUCACCCAUGUGCGCUUGGUUGUCCAAGCGCACAGGAUAUACCUCCCAAUGGGAGGUAGAAGGGUGAAAAGAAA [Orraveceat] (Eterna round: R96, puzzle: Same State NG 3) | 12.4 | 10.9 | 16 | – |
| UUACUCAUGUAAGGAUAUGCAGCCGAAACGGCUGCAGAAGGUACUAAAAUACAUGAGGAUCACCCAUGUCUAAUUAAUUAAGAC [Mat - Same State NG 1 - JL mod - D84] (Eterna round: R96, puzzle: Same State NG 1) | 139 | 36.3 | 66.5 | – |
| UCUUGGUUUUUGCUCGUUUUUUGUGUUGAACAUGAGGAUCACCCAUGUAUUGUACGGUCCGGUUUAAUAGUGGUCCA [JMF 43] (puzzle: Sensor for hsa-mir-208a) | – | – | – | apparent KD of MS2 coat protein (MS2 coat protein [1]; [4]): 95.4 nM; apparent KD of MS2 coat protein (MS2 coat protein [1]; [6]): 59.8 nM; apparent KD of MS2 coat protein (MS2 coat protein [1]; [5]): 105 nM |
| AAAAGACAUGAGGAUCACCCAUGUCAAGACGUGGGAGGAUAUGCAUGGAAAACAUGCUGUGCAGAAGGCCCGUGUC [SS1 - 20] (Eterna round: R96, puzzle: Same State 1) | 16.2 | 16.6 | 24 | – |
| AAGGGCGGAAACAACAUGAGGAUCACCCAUGUUGCCGAAAGGCAGGAUAUCCGGCGAAAGCAGAAGGAGAAGGGUCAAGAACCA [AK SSNG3-V2-42.1] (Eterna round: R96, puzzle: Same State NG 3) | 39 | 16 | 22.5 | – |
| AGAAAGAAACAUGAGGAUCACCCAUGUACAAGCUUUUUGCUCGUCUUAUUACAUGGGUUCAUGGGUGAUCGGGAUGU [Tim MacKenzie] (puzzle: Sensor for hsa-mir-208a version 2) | – | – | – | apparent KD of MS2 coat protein (MS2 coat protein [1]; [4]): 11.1 nM; apparent KD of MS2 coat protein (MS2 coat protein [1]; [6]): 13.1 nM; apparent KD of MS2 coat protein (MS2 coat protein [1]; [5]): 19.9 nM |
| AUUACUAACAUAGGAUAUCAUGCGAAAAUUGCGUGAGAAGGGUGGACGCUGUCAUUCUCGGAGGACAUGAGGAUCACCCAUGUC [SameState NG1 #71] (Eterna round: R96, puzzle: Same State NG 1) | 118 | 103 | 90.7 | – |
| GAAAAGGCGACGCAGGAUAUGAAAGGUGAAACAUGAGGAUCACCCAUGUGCUACCUUCCGAUAAAUCAGAAGGGCGACGCCAAGC [Soleusat] (puzzle: Same State 2) | – | – | – | apparent KD of MS2 coat protein (MS2 coat protein [1]; [4]): 9.79 nM; apparent KD of MS2 coat protein (MS2 coat protein [1]; [6]): 8.54 nM; apparent KD of MS2 coat protein (MS2 coat protein [1]; [5]): 9.6 nM |
| GUCCGUACCACAGGAUAUCCUAGUCAUGAUCUAGGAGAAGGGUGGCCACAUGAGGAUCACCCAUGUGAAGUGCCAGAGGCACGA [MOD Xexeraed] (Eterna round: R96, puzzle: Same State NG 1) | 35.2 | 46 | 53.3 | – |
| GGUUUAGUCAGGUACAGUUGCACCUGAAAACAUGAGGAUCACCCAUGUUUGGGACAAGCUUUGCUCCUCGUCUUGCC [Ralausen] (puzzle: Sensor for hsa-mir-208a) | – | – | – | apparent KD of MS2 coat protein (MS2 coat protein [1]; [4]): 101 nM; apparent KD of MS2 coat protein (MS2 coat protein [1]; [6]): 77.6 nM; apparent KD of MS2 coat protein (MS2 coat protein [1]; [5]): 152 nM |
| AGCUAGUACCGAGGAUAUACAUACAUGAGGAUCACCCAUGUAUACAUGAAUUUAUGAGACUACAUGUAGAAGGCGGUACUAGCA [JL SSNG2 1.21] (Eterna round: R96, puzzle: Same State NG 2) | – | 40.1 | – | – |
| AUAACACCGGCAGGAUAUGGGAAAGGAAGUGUACCAGAAGGGCCGGAACGGCGAUGGACAUGAGGAUCACCCAUGUCUUAGCCU [PowerStrip SSNG 1.24] (Eterna round: R96, puzzle: Same State NG 1) | 13.7 | 11.6 | 17.3 | – |
| UUAUUAUUUAUAGGAUAUUGAUGUUUGCUAGUACAAGAAGGAUAAACAUGAGGAUCACCCAUGUAGUUUAAGGUUAGUUUGUUU [JR_SSNG1_Sub078] (Eterna round: R96, puzzle: Same State NG 1) | – | 25.2 | – | – |
| GGAAACAGAGGAGGAUAUGCAGAGGAUCACCCUGUAGAAGGCCUCGAAAGGAGGAUAUGCAGAGGAUCACCCUGUAGAAGGCCU [pwkr ssNG DX.26] (Eterna round: R96, puzzle: Same State NG 1) | 72.1 | 156 | 208 | – |
| ACAUGAAAUUUAGGAUAUUUUGUACCUACAUGUGACAUGAGGAUCACCCAUGUGGUAAGUAUAAGAAAGAAGGAAAAGAUAUGU [Equivalence 8 - Jieux - Same State NG 2] (Eterna round: R96, puzzle: Same State NG 2) | 61.1 | 41.2 | 64.9 | – |
| GUGGUCAGACAUGAGGAUCACCCAUGUGGAAUAAAUAAGGUCAAGGAUAUGGAAUAUAGGAUAUACCAGAAGGUGAGGUUGGUG (Eterna round: R96, puzzle: Same State NG 3) | 245 | 167 | 225 | – |
| GUACAGAUUAUAGGAUAUCACGUCGAAUAGACGUGAGAAGGAUAAUCACACAUGAAUAUUAAUACAUGAGGAUCACCCAUGUAC [SSNG1/17-A1] (Eterna round: R96, puzzle: Same State NG 1) | 16.7 | 12.9 | 17.1 | – |
| GUGGUCAGACAUGAGGAUCACCCAUGUGGAAUAAAUAACAGACAGGAUAUCUAAUAUAGGAUAUAGGAGAAGGGUCGAUUGGUG (Eterna round: R96, puzzle: Same State NG 3) | – | 73.5 | – | – |
| UGUAUGGACUGAAGGAGCGGUAGAUAACUUGAGGAUCACCCAGGUAAUAAGGCGAAAGCCUACCAGGUAGGUCGCAGUCCAUACU | – | – | – | apparent KD of MS2 coat protein (MS2 coat protein [2]; input ligand: arginine 13.2 mM): 203 nM; apparent KD of MS2 coat protein (MS2 coat protein [2]; input ligand: none): 144 nM; apparent KD of MS2 coat protein (MS2 coat protein [2]; [7]): 171 nM; apparent KD of MS2 coat protein (MS2 coat protein [2]; [8]): 153 nM; apparent KD of MS2 coat protein (MS2 coat protein [2]; [9]): 138 nM |
| UGUACCAUGUCGGCCGCCACUUGAAAUAAACAAGAGGAUCACCCUUGUGACGUCAAAGACGUCUCAAGGACCGGGACAUGGUACU [TryBS Zipper #StaticStem #Zipper] | – | – | – | apparent KD of MS2 coat protein (MS2 coat protein [2]; input ligand: arginine 13.2 mM): 168 nM; apparent KD of MS2 coat protein (MS2 coat protein [2]; input ligand: none): 313 nM; apparent KD of MS2 coat protein (MS2 coat protein [2]; [7]): 281 nM; apparent KD of MS2 coat protein (MS2 coat protein [2]; [8]): 357 nM; apparent KD of MS2 coat protein (MS2 coat protein [2]; [9]): 19 nM |
| CUACAUUUGUAGAAACCGGUCAACAUUAUUCGAGGACCGGUACGGCCGCCACUCGUAUAAUUUAAUACAUGAGGAUCACCCAUGU [Tryptophan A 5] | – | – | – | apparent KD of MS2 coat protein (MS2 coat protein [2]; input ligand: arginine 13.2 mM): 16.1 nM; apparent KD of MS2 coat protein (MS2 coat protein [2]; [7]): 17.3 nM; apparent KD of MS2 coat protein (MS2 coat protein [2]; [8]): 16.9 nM |
